# Source: publication PMC9045202
# Molecular target: EFG displayed on the surface of E. coli BL21 as a fusion with InaZN and mCherry (BL21-pEImC-EFG) (Escherichia coli (ExPEC strain RS218)) (UniProt P0A6M8)
# Assay: fluorescence intensity of labelled ligand bound to bacteria, competition; BL21-pEImC-EFG incubated with a mixture of fluor-TF (20 μg/mL) and an excess of unlabeled holo-TF; fluorescence of 10^7 bacterial cells, excitation 485 nm, emission 535 nm
# Chain of UniProt P0A6M8 (P0A6M8 whole entry, the tested form may be a part): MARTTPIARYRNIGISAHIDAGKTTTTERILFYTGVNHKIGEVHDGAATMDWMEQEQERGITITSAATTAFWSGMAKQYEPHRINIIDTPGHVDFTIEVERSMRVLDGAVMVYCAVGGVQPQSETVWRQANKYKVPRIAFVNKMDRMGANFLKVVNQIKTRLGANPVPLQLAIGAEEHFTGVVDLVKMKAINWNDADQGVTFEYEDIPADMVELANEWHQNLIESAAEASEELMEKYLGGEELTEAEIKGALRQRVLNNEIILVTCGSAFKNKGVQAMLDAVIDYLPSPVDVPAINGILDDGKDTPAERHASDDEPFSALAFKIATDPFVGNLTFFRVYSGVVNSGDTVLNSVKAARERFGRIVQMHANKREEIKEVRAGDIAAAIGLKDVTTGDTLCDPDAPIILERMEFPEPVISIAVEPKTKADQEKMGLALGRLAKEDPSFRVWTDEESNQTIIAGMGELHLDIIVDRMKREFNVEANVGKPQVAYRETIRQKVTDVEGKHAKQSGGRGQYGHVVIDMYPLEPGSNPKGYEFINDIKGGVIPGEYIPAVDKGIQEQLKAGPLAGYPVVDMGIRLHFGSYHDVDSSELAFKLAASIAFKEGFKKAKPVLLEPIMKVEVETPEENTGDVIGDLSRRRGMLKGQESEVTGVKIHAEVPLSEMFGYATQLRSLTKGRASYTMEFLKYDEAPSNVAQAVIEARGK
substance,measurement,value
"holo-transferrin (iron-saturated holo-TF), unlabeled (from UniProt P02787 20-698) (natural protein)",fluorescence intensity of bound fluor-TF with an excess of unlabeled holo-TF,76.4%
